From article PMC9858354, “Studies with neutralizing antibodies suggest CXCL8-mediated neutrophil activation is independent of C-C motif chemokine receptor-like 2 (CCRL2) ligand binding function” (PLOS ONE, 2023)

T1: human C-C motif chemokine receptor-like 2 (CCRL2) isoform b, on HEK-huCCRL2 cells (human, UniProt O00421 1-344)
T1 construct: C-C motif chemokine receptor-like 2 (CCRL2), human, isoform b, codon optimized cDNA; No tag is mentioned for the construct; also called human CCRL2
T1 sequence (looked up): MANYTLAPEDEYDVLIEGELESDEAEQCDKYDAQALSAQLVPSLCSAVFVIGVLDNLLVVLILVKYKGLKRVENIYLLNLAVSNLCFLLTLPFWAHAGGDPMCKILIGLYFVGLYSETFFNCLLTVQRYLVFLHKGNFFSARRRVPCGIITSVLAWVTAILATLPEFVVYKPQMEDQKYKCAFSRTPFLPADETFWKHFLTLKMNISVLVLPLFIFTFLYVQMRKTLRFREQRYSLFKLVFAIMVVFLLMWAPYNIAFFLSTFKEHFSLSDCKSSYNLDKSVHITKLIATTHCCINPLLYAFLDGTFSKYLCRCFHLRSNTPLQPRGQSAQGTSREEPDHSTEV

T2: mouse C-C motif chemokine receptor-like 2 (CCRL2) isoform b, on HEK-muCCRL2 cells (mouse, UniProt O35457 1-360)
T2 construct: C-C motif chemokine receptor-like 2 (CCRL2), mouse, printed as isoform b, codon optimized cDNA; also called murine CCRL2
T2 sequence (looked up): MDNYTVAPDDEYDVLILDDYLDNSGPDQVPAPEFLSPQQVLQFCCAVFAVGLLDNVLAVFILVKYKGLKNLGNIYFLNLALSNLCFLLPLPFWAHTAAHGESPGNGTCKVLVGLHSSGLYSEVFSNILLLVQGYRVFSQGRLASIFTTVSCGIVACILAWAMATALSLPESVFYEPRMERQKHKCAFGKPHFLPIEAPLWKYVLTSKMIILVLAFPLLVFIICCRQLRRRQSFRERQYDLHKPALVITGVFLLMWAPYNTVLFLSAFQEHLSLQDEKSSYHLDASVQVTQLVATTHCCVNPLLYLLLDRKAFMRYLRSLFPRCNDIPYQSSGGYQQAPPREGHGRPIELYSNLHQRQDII


Key:
Conditions in all cases: one partner purified
[1] = biological target: T1, human C-C motif chemokine receptor-like …; experiment: flow cytometry on cells; serially diluted biotin-labeled ligand on HEK-huCCRL2, HEK-muCCRL2 or parental HEK cells (2x10^4 cells/well, 384-well), PBS + 0.1% BSA, 4°C 45 min, detected with RRX-streptavidin; MFI normalized to parental HEK cell binding; EC50 from four-parameter fit
[2] = biological target: T1, human C-C motif chemokine receptor-like …; experiment: SPR; live-cell SPR microscopy (SPRm 200); HEK-huCCRL2 cells seeded on collagen-coated gold slides; analyte injected at 150 ul/min, contact 3 min, dissociation 5 min; running buffer PBS + 0.1% BSA; chemerin 10-400 nM; 1:1 binding model; n = 3
[3] = biological target: T1, human C-C motif chemokine receptor-like …; experiment: flow cytometry on cells; competition: HEK-huCCRL2 or HEK-muCCRL2 cells incubated with serially diluted unlabeled competitor at 4°C 45 min, then 10 nM biotin-labeled chemerin at 4°C 45 min, RRX-streptavidin; IC50 from four-parameter fit
[4] = biological target: T2, mouse C-C motif chemokine receptor-like …; experiment: as above
[5] = biological target: T2, mouse C-C motif chemokine receptor-like …; experiment: flow cytometry on cells; serially diluted biotin-labeled ligand on HEK-huCCRL2, HEK-muCCRL2 or parental HEK cells (2x10^4 cells/well, 384-well), PBS + 0.1% BSA, 4°C 45 min, detected with RRX-streptavidin; MFI normalized to parental HEK cell binding; EC50 from four-parameter fit

Row | EC50 [1] [nM] | Kd [2] [nM] | koff [2] [s⁻¹] | kon [2] [M⁻¹ s⁻¹] | IC50 [3] [nM] | IC50 [4] [nM] | EC50 [5] [nM] | Binder
1 | 4.2 | 8.55 | 0.00184 | 297000 |  |  |  | biotin-labeled recombinant active human chemerin (residues 21-157) (ligand, UniProt Q99969 21-157, looked up, biotin (EZ-Link Sulfo-NHS-LC-Biotin, biotin-to-analyte molar ratio 5:1; any reactive primary amine), active human chemerin, Uniprot entry Q99969, residues 21-157; also called Biotin-chemerin; biotinylated chemerin; not shown: Fc (human IgG1, monovalent) with TEV site, N-terminal, cleaved) ELTEAQRRGLQVALEEFHKHPPVQWAFQETSVESAVDTPFPAGIFVRLEFKLQQTSCRKRDWKKPECKVRPNGRKRKCLACIKLGSEDKVLGRLVHCPIETQVLREAEEHQETQCLRVQRAGEDPHSFYFPGQFAFS
2 |  | 5.49 | 0.00116 | 311000 | 7.55 |  |  | recombinant active human chemerin (residues 21-157), unlabeled (ligand, UniProt Q99969 21-157, looked up, active human chemerin, Uniprot entry Q99969, residues 21-157; Construct is named hIgG1 monovalent Fc-TEV-chemerin; also called label-free chemerin; unlabeled chemerin; source: HEK 293F, transient, purified (Protein A, TEV cleavage, Protein A and Ni-NTA removal, Superdex 75 SEC); not shown: Fc (human IgG1, monovalent) with TEV site, N-terminal, cleaved) ELTEAQRRGLQVALEEFHKHPPVQWAFQETSVESAVDTPFPAGIFVRLEFKLQQTSCRKRDWKKPECKVRPNGRKRKCLACIKLGSEDKVLGRLVHCPIETQVLREAEEHQETQCLRVQRAGEDPHSFYFPGQFAFS
3 |  |  |  |  |  | 21.1 |  | recombinant active mouse chemerin (residues 21-156), unlabeled (ligand, UniProt Q9DD06 21-156, looked up, active mouse chemerin, Uniprot entry Q9DD06, residues 21-156; Construct is named hIgG1 monovalent Fc-TEV-chemerin; also called murine chemerin; unlabeled murine chemerin; source: HEK 293F, transient, purified (Protein A, TEV cleavage, Protein A and Ni-NTA removal, Superdex 75 SEC); not shown: Fc (human IgG1, monovalent) with TEV site, N-terminal, cleaved) EPELSETQRRSLQVALEEFHKHPPVQLAFQEIGVDRAEEVLFSAGTFVRLEFKLQQTNCPKKDWKKPECTIKPNGRRRKCLACIKMDPKGKILGRIVHCPILKQGPQDPQELQCIKIAQAGEDPHGYFLPGQFAFS
4 |  |  |  |  |  |  | 143 | biotin-labeled recombinant active mouse chemerin (residues 21-156) (ligand, UniProt Q9DD06 21-156, looked up, biotin (EZ-Link Sulfo-NHS-LC-Biotin, biotin-to-analyte molar ratio 5:1; any reactive primary amine), active mouse chemerin, Uniprot entry Q9DD06, residues 21-156; also called biotinylated murine chemerin; biotin-labeled murine chemerin; not shown: Fc (human IgG1, monovalent) with TEV site, N-terminal, cleaved) EPELSETQRRSLQVALEEFHKHPPVQLAFQEIGVDRAEEVLFSAGTFVRLEFKLQQTNCPKKDWKKPECTIKPNGRRRKCLACIKMDPKGKILGRIVHCPILKQGPQDPQELQCIKIAQAGEDPHGYFLPGQFAFS
